In patent US20180085455A1 (ISU ABXIS, published 2018):

target: T1, recombinant human ErbB3 protein (R&D systems) (human, UniProt P21860 20-643); test: BLI (Octet QK384), human ErbB3 immobilized on AR2G sensor, IgG at 12.5-50 nM
T1 construct: Bought recombinant protein; also called HER3
Description: After activation of carboxyl groups in 20 mM of 1-ethyl-3-(3-dimethylaminopropyl)carbodiimide hydrochloride (EDC) and 40 mM of N-hydroxysulfosuccinimide (sulfo-NHS) solution on an AR2G sensor (ForteBio), 10 μg/mL of human ErbB3 protein solution diluted with 10 mM of sodium acetate (pH 4.0) (ForteBio) was added to immobilize human ErbB3 protein onto the AR2G sensor. The AR2G sensor to which the human ErbB3 protein was immobilized and was treated with 1 M of ethanolamine (ForteBio) to inactivate the remaining unreacted carboxyl groups.

Binder | Kd [pM] | koff [s⁻¹] | kon [M⁻¹ s⁻¹]
472S1 (antibody, V domains shown, IgG1 (Selexis 085 vector, CHO)) VH: EVQLLESGGGLVQPGGSLRLSCAASGFTFSWYDMTWVRQAPGKGLEWVSGISYDGGNTYYADSVKGRFTISRDNSKNTLYLQMNSLRAEDTAVYYCARDPSWCLQDLCYYADGMDVWGQGTLVTVSS VL: QSVLTQPPSASGTPGQRVTISCSGSSSNIGSNSVSWYQQLPGTAPKLLIYADSNRPSGVPDRFSGSKSGTSASLAISGLRSEDEADYYCGSWDYSLSGYVFGGGTKLTVLG | < 1 | 3.33e-07 | 649000
451P (antibody, V domains shown, IgG1 (Selexis 085 vector, CHO); also called anti-ErbB3 lead antibody 451P) VH: EVQLLESGGGLVQPGGSLRLSCAASGFTFSDYDMSWVRQAPGKGLEWVSAIYYDSGSIYYADSAKGRFTISRDNSKNTLYLQMNSLRAEDTAVYYCAKDRLFVSDSTFDYWGQGTLVTVSS VL: QSVLTQPPSASGTPGQRVTISCSGSPSNIGNNSVTWYQQLPGTAPKLLIYYDSHRPSGVPDRFSGSKSGTSASLAISGLRSEDEADYYCGSWDASLNGYVFGGGTKLTVLG | 53.5 | 6.33e-05 | 1.18e+06
442M7 (antibody, V domains shown, IgG1 (Selexis 085 vector, CHO)) VH: EVQLLESGGGLVQPGGSLRLSCAASGFTFSDYDMSWVRQAPGKGLEWVSTIEPDSGSTYYADSVQSRFTISRDNSKNTLYLQMNSLRAEDTAVYYCAKDLHMGPEGPFDYWGQGTLVTVSS VL: not shown | 29.1 | 4.55e-05 | 1.56e+06
451M4 (antibody, V domains shown, IgG1 (Selexis 085 vector, CHO)) VH: EVQLLESGGGLVQPGGSLRLSCAASGFTFSYYDMSWVRQAPGKGLEWVSAIYYDSGSIYYADSAKGRFTISRDNSKNTLYLQMNSLRAEDTAVYYCAKDRLFASDSTFDYWGQGTLVTVSS VL: QSVLTQPPSASGTPGQRVTISCSGSPSNIGNNSVTWYQQLPGTAPKLLIYYDSHRPSGVPDRFSGSKSGTSASLAISGLRSEDEADYYCGSWDASLNGYVFGGGTKLTVLG | 6.12 | 1.23e-05 | 2.01e+06
442M8 (antibody, V domains shown, IgG1 (Selexis 085 vector, CHO)) VH: EVQLLESGGGLVQPGGSLRLSCAASGFTFSDYDMSWVRQAPGKGLEWVSSIYPDSGSTYYADSVQGRFTISRDNSKNTLYLQMNSLRAEDTAVYYCAKDLHMGPEGPFDYWGQGTLVTVSS VL: QSVLTQPPSASGTPGQRVTISCSGSSSNIGSNSVSWYQQLPGTAPKLLIYSDNHRPSGVPDRFSGSKSGTSASLAISGLRSEDEADYYCHAWDSSLYVDVFGGGTKLTVLG | 2.56 | 2.23e-06 | 870000
472S4 (antibody, V domains shown, IgG1 (Selexis 085 vector, CHO)) VH: EVQLLESGGGLVQPGGSLRLSCAASGFTFSWYDIAWVRQAPGKGLEWVSGISYDGGNTYYADSVKGRFTISRDNSKNTLYLQMNSLRAEDTAVYYCARDPSWCLQDLCYYADGMDVWGQGTLVTVSS VL: QSVLTQPPSASGTPGQRVTISCSGSSSNIGSNSVSWYQQLPGTAPKLLIYADSNRPSGVPDRFSGSKSGTSASLAISGLRSEDEADYYCGSWDYSLSGYVFGGGTKLTVLG | 9.41 | 1.09e-05 | 1.15e+06
451M2 (antibody, V domains shown, IgG1 (Selexis 085 vector, CHO)) VH: EVQLLESGGGLVQPGGSLRLSCAASGFTFSDYDMSWVRQAPGKGLEWVSAIYYDSGSIYYADSAKGRFTISRDNSKNTLYLQMNSLRAEDTAVYYCAKDRLFASDSTFDYWGQGTLVTVSS VL: QSVLTQPPSASGTPGQRVTISCSGSPSNIGNNSVTWYQQLPGTAPKLLIYYDSHRPSGVPDRFSGSKSGTSASLAISGLRSEDEADYYCGSWDASLNGYVFGGGTKLTVLG | 12.6 | 1.56e-05 | 1.24e+06
442M3 (antibody, V domains shown, IgG1 (Selexis 085 vector, CHO)) VH: EVQLLESGGGLVQPGGSLRLSCAASGFTFSDYDMSWVRQAPGKGLEWVSSIYPDSGSTYYADSVQGRFTISRDNSKNTLYLQMNSLRAEDTAVYYCAKDRHMWPEGPFDYWGQGTLVTVSS VL: QSVLTQPPSASGTPGQRVTISCSGSSSNIGSNSGSWYQQLPGTAPKLLIYADNWRPSGVPDRFSGSKSGTSASLAISGLRSEDEADYYCAAWDSSLSGYVFGGGTKLTVLG | 3.4 | 2.62e-06 | 771000
451M3 (antibody, V domains shown, IgG1 (Selexis 085 vector, CHO)) VH: EVQLLESGGGLVQPGGSLRLSCAASGFTFSHYDMSWVRQAPGKGLEWVSAIYYDSGSIYYADSAKGRFTISRDNSKNTLYLQMNSLRAEDTAVYYCAKDRLFASDSTFDYWGQGTLVTVSS VL: QSVLTQPPSASGTPGQRVTISCSGSPSNIGNNSVTWYQQLPGTAPKLLIYYDSHRPSGVPDRFSGSKSGTSASLAISGLRSEDEADYYCGSWDASLNGYVFGGGTKLTVLG | < 1 | 2.3e-07 | 1.87e+06
472S3 (antibody, V domains shown, IgG1 (Selexis 085 vector, CHO)) VH: EVQLLESGGGLVQPGGSLRLSCAASGFTFSWYDMSWVRQAPGKGLEWVSGISYDGGNTYYADSVKGRFTISRDNSKNTLYLQMNSLRAEDTAVYYCARDPSWCLQDLCYYADGMDVWGQGTLVTVSS VL: QSVLTQPPSASGTPGQRVTISCSGSSSNIGSNSVSWYQQLPGTAPKLLIYADSNRPSGVPDRFSGSKSGTSASLAISGLRSEDEADYYCGSWDYSLSGYVFGGGTKLTVLG | < 1 | 1.43e-07 | 522000
442M4 (antibody, V domains shown, IgG1 (Selexis 085 vector, CHO)) VH: EVQLLESGGGLVQPGGSLRLSCAASGFTFSDYDMSWVRQAPGKGLEWVSTIDLDSGSIYYADSVQGRFTISRDNSKNTLYLQMNSLRAEDTAVYYCAKDLHMGPEGPFDYWGQGTLVTVSS VL: QSVLTQPPSASGTPGQRVTISCSGSSSNIGSNSVSWYQQLPGTAPKLLIYSDNHRPSGVPDRFSGSKSGTSASLAISGLRSEDEADYYCVGWDSSLYGHVFGGGTKLTVLG | < 1 | < 1e-07 | 573000
442S2 (antibody, V domains shown, IgG1 (Selexis 085 vector, CHO)) VH: EVQLLESGGGLVQPGGSLRLSCAASGFTFSDYDMSWVRQAPGKGLEWVSSIYPDSGSTDYADSVQGRFTISRDNSKNTLYLQMNSLRAEDTAVYYCAKDLHMGPEGPFDYWGQGTLVTVSS VL: not shown | 71.1 | 8.28e-05 | 1.17e+06
442S6 (antibody, V domains shown, IgG1 (Selexis 085 vector, CHO)) VH: EVQLLESGGGLVQPGGSLRLSCAASGFTFSDYDMSWVRQAPGKGLEWVSSIYPDSGSTDYADSVQGRFTISRDNSKNTLYLQMNSLRAEDTAVYYCAKDRHMWPEGPFDYWGQGTLVTVSS VL: QSVLTQPPSASGTPGQRVTISCSGSSSNIGSNSGSWYQQLPGTAPKLLIYADNWRPSGVPDRFSGSKSGTSASLAISGLRSEDEADYYCAAWDSSLSGYVFGGGTKLTVLG | < 1 | < 1e-07 | 872000
442S10 (antibody, V domains shown, IgG1 (Selexis 085 vector, CHO)) VH: EVQLLESGGGLVQPGGSLRLSCAASGFTFSDYDMSWVRQAPGKGLEWVSSIYPDSGSTYYADSVQGRFTISRDNSKNTLYLQMNSLRAEDTAVYYCAKDRHMWPEGPFDYWGQGTLVTVSS VL: not shown | 114 | 9.29e-05 | 814000
442S4 (antibody, V domains shown, IgG1 (Selexis 085 vector, CHO)) VH: EVQLLESGGGLVQPGGSLRLSCAASGFTFSDYDMSWVRQAPGKGLEWVSSIEPDFGSSYYADSVRGRFTISRDNSKNTLYLQMNSLRAEDTAVYYCAKDLHMGPEGPFDYWGQGTLVTVSS VL: not shown | 37.1 | 5.47e-05 | 1.48e+06
442M5 (antibody, V domains shown, IgG1 (Selexis 085 vector, CHO)) VH: EVQLLESGGGLVQPGGSLRLSCAASGFTFSDYDMSWVRQAPGKGLEWVSTIDLDSGSIYYADSVQGRFTISRDNSKNTLYLQMNSLRAEDTAVYYCAKDLHMGPEGPFDYWGQGTLVTVSS VL: QSVLTQPPSASGTPGQRVTISCSGSSSNIGSNSVSWYQQLPGTAPKLLIYSDNHRPSGVPDRFSGSKSGTSASLAISGLRSEDEADYYCHAWDSSLWGDVFGGGTKLTVLG | < 1 | < 1e-07 | 665000
451M1 (antibody, V domains shown, IgG1 (Selexis 085 vector, CHO)) VH: EVQLLESGGGLVQPGGSLRLSCAASGFTFSDYDMSWVRQAPGKGLEWVSAIYYDSGSIYYADSAKGRFTISRDNSKNTLYLQMNSLRAEDTAVYYCAKDRLFMSDSTFDYWGQGTLVTVSS VL: QSVLTQPPSASGTPGQRVTISCSGSPSNIGNNSVTWYQQLPGTAPKLLIYYDSHRPSGVPDRFSGSKSGTSASLAISGLRSEDEADYYCGSWDASLNGYVFGGGTKLTVLG | 24.8 | 3.08e-05 | 1.24e+06
442S9 (antibody, V domains shown, IgG1 (Selexis 085 vector, CHO)) VH: EVQLLESGGGLVQPGGSLRLSCAASGFTFSDYDMSWVRQAPGKGLEWVSSIYPDSGSTYYADSVQGRFTISRDNSKNTLYLQMNSLRAEDTAVYYCAKDRHMWPEGPFDYWGQGTLVTVSS VL: QSVLTQPPSASGTPGQRVTISCSGSSSNIGSNSGSWYQQLPGTAPKLLIYADNHRPSGVPDRFSGSKSGTSASLAISGLRSEDEADYYCAAWDSSLSGYVFGGGTKLTVLG | 71.6 | 5.87e-05 | 821000
442M10 (antibody, V domains shown, IgG1 (Selexis 085 vector, CHO)) VH: EVQLLESGGGLVQPGGSLRLSCAASGFTFSDYDMSWVRQAPGKGLEWVSSIYPDSGSTDYADSVQGRFTISRDNSKNTLYLQMNSLRAEDTAVYYCAKDLHMWPEGPFDYWGQGTLVTVSS VL: QSVLTQPPSASGTPGQRVTISCSGSSSNIGSNSVSWYQQLPGTAPKLLIYADNFRPSGVPDRFSGSKSGTSASLAISGLRSEDEADYYCAAWDSSLSGYVFGGGTKLTVLG | < 1 | < 1e-07 | 471000
442M11 (antibody, V domains shown, IgG1 (Selexis 085 vector, CHO)) VH: EVQLLESGGGLVQPGGSLRLSCAASGFTFSDYDMSWVRQAPGKGLEWVSTIEPDYGSTLYADSVQGRFTISRDNSKNTLYLQMNSLRAEDTAVYYCAKDLHMGPEGPFDYWGQGTLVTVSS VL: QSVLTQPPSASGTPGQRVTISCSGSSSNIGSNSVSWYQQLPGTAPKLLIYSDNHRPSGVPDRFSGSKSGTSASLAISGLRSEDEADYYCHAWDSSLSGDFFGGGTKLTVLG | 5.43 | 8.09e-06 | 1.49e+06
